This series has as its system Escherichia coli TOP10. Nature of the series: shrunken log2 fold change of peptide-encoding DNA abundance (4.5 h post-induction vs induction); higher = less antimicrobial activity (less host growth inhibition). The note with it: time post-induction: 4.5 h; library: site-saturation at positions 5, 18, 19, 20.
As to RRIRTRPPRLPRPRPRPLPCPRP, the “shrunken log2 fold change” value was found to be 0.0112.
In the case of RRIRQRPPRLPRPRPRPRNMPRP it was -0.211; in that of RRIRTRPPRLPRPRPRPTWWPRP, 0.538.
As for RRIRFRPPRLPRPRPRPTFCPRP, the figure is -0.152; as for RRIRQRPPRLPRPRPRPAMCPRP, 0.171; as for RRIRLRPPRLPRPRPRPAAFPRP, 0.184.
In the case of RRIRARPPRLPRPRPRPSDDPRP it was 0.282; in that of RRIRWRPPRLPRPRPRPGVYPRP, 0.221.
With RRIRFRPPRLPRPRPRPVSVPRP, the “shrunken log2 fold change” value was -0.341.
In the case of RRIRWRPPRLPRPRPRPLNWPRP it was 0.101; in that of RRIRDRPPRLPRPRPRPYNDPRP, -0.307.
For RRIRLRPPRLPRPRPRPRPTPRP, the “shrunken log2 fold change” value amounted to 0.484.
Consider RRIRQRPPRLPRPRPRPHLDPRP, for which the “shrunken log2 fold change” value is -0.0359.
Turning to RRIRVRPPRLPRPRPRPSFQPRP, the “shrunken log2 fold change” value is -0.22.
As to RRIRKRPPRLPRPRPRPVIGPRP, the “shrunken log2 fold change” value was found to be 0.233.
In the case of RRIRERPPRLPRPRPRPIHHPRP it was -0.7; in that of RRIRARPPRLPRPRPRPMAGPRP, 0.163.
Consider RRIRARPPRLPRPRPRPWARPRP, for which the “shrunken log2 fold change” value is 0.0181.
In the case of RRIRVRPPRLPRPRPRPPKNPRP it was 0.192; in that of RRIRKRPPRLPRPRPRPEISPRP, -0.0587.
Regarding RRIRTRPPRLPRPRPRPDSDPRP, the “shrunken log2 fold change” value was -0.65.
As for RRIRGRPPRLPRPRPRPPHPPRP, the figure is 0.643.
In the case of RRIRGRPPRLPRPRPRPEVPPRP it was 0.434; in that of RRIRIRPPRLPRPRPRPTWVPRP, -0.022.
Regarding RRIRVRPPRLPRPRPRPDYMPRP, the “shrunken log2 fold change” value was 0.0631.
Take RRIRGRPPRLPRPRPRPNRCPRP: the “shrunken log2 fold change” value was determined as 0.422.
As for RRIRERPPRLPRPRPRPENIPRP, the figure is -0.227.
Regarding RRIRTRPPRLPRPRPRPCCIPRP, the “shrunken log2 fold change” value was -0.155.
As for RRIRLRPPRLPRPRPRPVATPRP, the figure is 0.282; as for RRIRLRPPRLPRPRPRPWIEPRP, -0.00922; as for RRIRGRPPRLPRPRPRPWVYPRP, -0.0165.
As for RRIRQRPPRLPRPRPRPQIVPRP, the figure is -0.026; as for RRIRNRPPRLPRPRPRPMQKPRP, 0.0161.
As for RRIRVRPPRLPRPRPRPICWPRP, the figure is 0.0488; as for RRIRGRPPRLPRPRPRPYKNPRP, -0.22; as for RRIRWRPPRLPRPRPRPERFPRP, -0.0212.
RRIRFRPPRLPRPRPRPSSIPRP: the “shrunken log2 fold change” value is -0.945.
In the case of RRIRRRPPRLPRPRPRPKMNPRP it was -0.0665; in that of RRIRKRPPRLPRPRPRPWLAPRP, 0.201; in that of RRIRARPPRLPRPRPRPEHAPRP, 0.564.
In the case of RRIRQRPPRLPRPRPRPNSQPRP it was 0.229.
On to RRIRFRPPRLPRPRPRPVAHPRP, for which the “shrunken log2 fold change” value is -0.113.
In the case of RRIRRRPPRLPRPRPRPQFQPRP it was 0.00665; in that of RRIRYRPPRLPRPRPRPCFPPRP, -1.06.
On to RRIRGRPPRLPRPRPRPKAFPRP, for which the “shrunken log2 fold change” value stood at 0.157.
Turning to RRIRLRPPRLPRPRPRPFDMPRP, the “shrunken log2 fold change” value was -0.205.
As for RRIRFRPPRLPRPRPRPQCEPRP, the figure is 0.0491; as for RRIRHRPPRLPRPRPRPPYHPRP, -0.495.
Turning to RRIRCRPPRLPRPRPRPEVIPRP, the “shrunken log2 fold change” value was -0.083.
Turning to RRIRCRPPRLPRPRPRPYVNPRP, the “shrunken log2 fold change” value was -1.3.
As for RRIRMRPPRLPRPRPRPISTPRP, the figure is 0.166.
With RRIRVRPPRLPRPRPRPQTLPRP, the “shrunken log2 fold change” value was -0.372.
RRIRHRPPRLPRPRPRPQRAPRP: the “shrunken log2 fold change” value worked out at 0.205.
In the case of RRIRLRPPRLPRPRPRPHAMPRP it was -0.0654; in that of RRIRQRPPRLPRPRPRPIAAPRP, 0.269; in that of RRIRQRPPRLPRPRPRPLACPRP, -0.231.
As for RRIRARPPRLPRPRPRPGALPRP, the figure is 1.22.
As for RRIRTRPPRLPRPRPRPAKWPRP, the figure is -0.000772.
Take RRIRKRPPRLPRPRPRPEMLPRP: the “shrunken log2 fold change” value is 2.
Regarding RRIRYRPPRLPRPRPRPRPNPRP, the “shrunken log2 fold change” value was -0.0554.
In the case of RRIRTRPPRLPRPRPRPKWRPRP, the “shrunken log2 fold change” value was 0.394.
As for RRIRDRPPRLPRPRPRPQHEPRP, the figure is -0.00197.
As for RRIRMRPPRLPRPRPRPCCMPRP, the figure is -0.167; as for RRIRIRPPRLPRPRPRPHPIPRP, -0.265.
In the case of RRIRIRPPRLPRPRPRPMFMPRP it was -0.383.
As for RRIRSRPPRLPRPRPRPSCTPRP, the “shrunken log2 fold change” value is -0.0382.
In the case of RRIRGRPPRLPRPRPRPRSRPRP, the “shrunken log2 fold change” value was determined as 0.368.
As for RRIRWRPPRLPRPRPRPVWMPRP, the “shrunken log2 fold change” value was determined as 0.333.
As for RRIRYRPPRLPRPRPRPTAAPRP, the figure is 0.111; as for RRIRTRPPRLPRPRPRPLQPPRP, 0.161; as for RRIRMRPPRLPRPRPRPSMPPRP, -0.201.
Turning to RRIRPRPPRLPRPRPRPNYIPRP, the “shrunken log2 fold change” value was -0.739.
In the case of RRIRVRPPRLPRPRPRPCPDPRP it was -0.0269; in that of RRIRKRPPRLPRPRPRPWFLPRP, -0.157; in that of RRIRVRPPRLPRPRPRPCLVPRP, -0.115.
RRIRTRPPRLPRPRPRPPRFPRP: the “shrunken log2 fold change” value was 0.219.
In the case of RRIRFRPPRLPRPRPRPMWVPRP it was -0.00617.
In the case of RRIRYRPPRLPRPRPRPMANPRP it was -0.223; in that of RRIRCRPPRLPRPRPRPYKQPRP, -0.211; in that of RRIRGRPPRLPRPRPRPEIYPRP, 0.26.
As to RRIRLRPPRLPRPRPRPGFNPRP, the “shrunken log2 fold change” value was -0.0341.
In the case of RRIRARPPRLPRPRPRPHTMPRP, the “shrunken log2 fold change” value was -0.0952.
For the sequence RRIRMRPPRLPRPRPRPDKIPRP, the “shrunken log2 fold change” value turned out to be 0.179.
As for RRIRIRPPRLPRPRPRPPQEPRP, the “shrunken log2 fold change” value is -0.0258.
RRIRIRPPRLPRPRPRPFKWPRP: the “shrunken log2 fold change” value was -0.128.
Regarding RRIRARPPRLPRPRPRPPLVPRP, the “shrunken log2 fold change” value stood at 0.626.
In the case of RRIRVRPPRLPRPRPRPICSPRP it was -0.154.
As for RRIRPRPPRLPRPRPRPPRPPRP, the figure is 0.682.
In the case of RRIRQRPPRLPRPRPRPVQKPRP it was 0.25.
With RRIRARPPRLPRPRPRPQSNPRP, the “shrunken log2 fold change” value is -0.142.
As for RRIRMRPPRLPRPRPRPALTPRP, the “shrunken log2 fold change” value came out at 0.433.
As to RRIRVRPPRLPRPRPRPSVDPRP, the “shrunken log2 fold change” value was -0.193.
As for RRIRYRPPRLPRPRPRPFCAPRP, the figure is -0.415; as for RRIRARPPRLPRPRPRPRFEPRP, 0.401.
In the case of RRIRMRPPRLPRPRPRPIIEPRP it was -0.0631; in that of RRIRCRPPRLPRPRPRPKIQPRP, -0.156; in that of RRIRQRPPRLPRPRPRPMLDPRP, -0.206.
As for RRIRFRPPRLPRPRPRPSEPPRP, the figure is -0.0424; as for RRIRFRPPRLPRPRPRPTLYPRP, -0.189.
For the sequence RRIRERPPRLPRPRPRPPMLPRP, the “shrunken log2 fold change” value is 1.29.
Turning to RRIRCRPPRLPRPRPRPTWKPRP, the “shrunken log2 fold change” value is -0.114.
As for RRIRRRPPRLPRPRPRPRVWPRP, the figure is 0.686; as for RRIRPRPPRLPRPRPRPQTSPRP, 0.163.
As for RRIRMRPPRLPRPRPRPFWYPRP, the figure is -0.0609; as for RRIRRRPPRLPRPRPRPKAAPRP, 0.596.
With RRIRVRPPRLPRPRPRPVHPPRP, the “shrunken log2 fold change” value was 0.312.
As for RRIRTRPPRLPRPRPRPFWCPRP, the figure is -0.111.
As for RRIRSRPPRLPRPRPRPPSYPRP, the figure is -0.555; as for RRIRERPPRLPRPRPRPMPNPRP, -0.172; as for RRIRTRPPRLPRPRPRPIAEPRP, 0.0307.
As for RRIRFRPPRLPRPRPRPIVDPRP, the figure is -0.136; as for RRIRTRPPRLPRPRPRPMHRPRP, -0.142.
RRIRHRPPRLPRPRPRPSAPPRP: the “shrunken log2 fold change” value is -0.239.
In the case of RRIRYRPPRLPRPRPRPVEVPRP, the “shrunken log2 fold change” value is -0.282.
In the case of RRIRLRPPRLPRPRPRPLFPPRP it was -0.203; in that of RRIRFRPPRLPRPRPRPWTHPRP, -0.0346; in that of RRIRNRPPRLPRPRPRPGWMPRP, 0.142.
In the case of RRIRERPPRLPRPRPRPHMVPRP it was -0.174; in that of RRIRNRPPRLPRPRPRPYLLPRP, -0.27.
As for RRIRKRPPRLPRPRPRPNHEPRP, the figure is -0.0766; as for RRIRKRPPRLPRPRPRPTNAPRP, 0.733; as for RRIRKRPPRLPRPRPRPAMTPRP, 0.596.
In the case of RRIRDRPPRLPRPRPRPVEKPRP, the “shrunken log2 fold change” value was 0.0436.
As to RRIRKRPPRLPRPRPRPFKHPRP, the “shrunken log2 fold change” value is -0.0024.
As for RRIRRRPPRLPRPRPRPDQIPRP, the figure is -0.122.

The values are drawn from the supplement of paper PMC9112550, “Optimization of the antimicrobial peptide Bac7 by deep mutational scanning” (BMC Biology, 2022).
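Note: peptides expressed intracellularly from a pBAD plasmid library in pooled LB shake-flask culture, induced with 0.3% L-arabinose, DNA abundance read by NGS, three biological replicates, DESeq2 with apeglm shrinkage.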
